Experimental data as given in US20250313621A1 (NXERA PHARMA UK, published 2025).

Assays:
[1] = biological target: T1, PAR2-3: P157: 1-377, glycosylated, pBacMamHisStrepII, full length (human, UniProt P55085 26-377); experiment: SPR; IgG immobilised, detergent solubilised FL-N PAR2 StaR as analyte
T1 construct: detergent-solubilised analyte in SPR, or on infected cells in flow cytometry; also called FL-N PAR2 StaR; FL-N StaR; not shown: C-terminal StrepII and deca-histidine tags
T1 sequence: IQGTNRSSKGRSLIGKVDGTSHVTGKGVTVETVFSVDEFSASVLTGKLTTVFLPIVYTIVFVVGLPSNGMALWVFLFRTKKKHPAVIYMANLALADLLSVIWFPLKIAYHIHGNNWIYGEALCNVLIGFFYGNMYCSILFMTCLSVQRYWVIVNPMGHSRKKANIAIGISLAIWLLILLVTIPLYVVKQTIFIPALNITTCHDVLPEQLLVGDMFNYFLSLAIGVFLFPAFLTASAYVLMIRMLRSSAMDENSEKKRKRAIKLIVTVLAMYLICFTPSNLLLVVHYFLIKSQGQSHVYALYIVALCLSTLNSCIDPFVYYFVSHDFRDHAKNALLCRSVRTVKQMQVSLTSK
Procedure: For three purified IgG1f_AEASS clones Y021171, Y022054 and Y022063 affinities to human PAR2-3 variant (P157: 1-377, glycosylated, pBacMamHisStrepII, full length) were determined by SPR immobilizing the IgG and probing with detergent (LMNG/CHS) solubilized FL-N PAR2 StaR. Affinities were 22 nM and 20 nM for Y022063 and Y021171, respectively.
(§1) The assay of PAR2 interaction with anti-PAR2 antibodies was carried out using a Biacore T200 instrument (GE Healthcare). Anti-human IgG antibody (Human Antibody Capture Kit, GE Healthcare) was immobilised by amine coupling on a sensor chip CM3 (GE Healthcare) to a surface density of 3500 to 4500 resonance units (RU). Immobilisation was carried out at 25° C. in HBS-EP+ buffer (GE Healthcare). The buffer was then changed to 50 mM HEPES, pH 7.5, 150 mM NaCl, 0.02% LMNG, 0.002% CHS. Each cycle of the PAR2-antibody interaction assay consisted of antibody capture (100 nM antibody injected for 2 min at a flow rate of 5 μL/min), PAR2 injection (blank or 250 nM, with contact and dissociation times of 2 and 3 minutes, respectively, at a flow rate of 20 μl/minute), and chip surface regeneration (30 seconds at 20 μl/minute) using the regeneration solution from Human Antibody Capture Kit (GE Healthcare). […] Measurements between each experimental data set were within the acceptable margins for this methodology.

[2] = biological target: T1, PAR2-3: P157: 1-377, glycosylated, …; experiment: SPR Biacore T200; IgG captured on anti-human IgG, 250 nM PAR2 analyte; 1:1 model
Procedure: as §1
The antibodies were captured on anti-human IgG chip surface followed by injection of 250 nM PAR2. The data were fitted to 1:1 interaction model.

[3] = biological target: T2, Wildtype human PAR2 expressed on cells (human, UniProt P55085 37-397); experiment: cell-based or functional assay
T2 sequence: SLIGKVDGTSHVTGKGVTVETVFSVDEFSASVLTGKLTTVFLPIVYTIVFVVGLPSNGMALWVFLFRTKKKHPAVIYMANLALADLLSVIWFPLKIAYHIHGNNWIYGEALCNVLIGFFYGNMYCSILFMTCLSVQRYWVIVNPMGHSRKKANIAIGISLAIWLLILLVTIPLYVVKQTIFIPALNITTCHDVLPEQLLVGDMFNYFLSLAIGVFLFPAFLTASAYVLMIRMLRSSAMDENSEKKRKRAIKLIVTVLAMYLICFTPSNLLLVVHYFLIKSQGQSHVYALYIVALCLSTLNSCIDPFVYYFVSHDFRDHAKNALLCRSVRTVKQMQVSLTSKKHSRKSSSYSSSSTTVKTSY

[4] = biological target: T3, Mouse PAR2 on Flp-In CHO cells (mouse, UniProt P55086 39-399); experiment: cell binding, flow cytometry/IntelliCyt
T3 construct: whole, on cells
T3 sequence (looked up): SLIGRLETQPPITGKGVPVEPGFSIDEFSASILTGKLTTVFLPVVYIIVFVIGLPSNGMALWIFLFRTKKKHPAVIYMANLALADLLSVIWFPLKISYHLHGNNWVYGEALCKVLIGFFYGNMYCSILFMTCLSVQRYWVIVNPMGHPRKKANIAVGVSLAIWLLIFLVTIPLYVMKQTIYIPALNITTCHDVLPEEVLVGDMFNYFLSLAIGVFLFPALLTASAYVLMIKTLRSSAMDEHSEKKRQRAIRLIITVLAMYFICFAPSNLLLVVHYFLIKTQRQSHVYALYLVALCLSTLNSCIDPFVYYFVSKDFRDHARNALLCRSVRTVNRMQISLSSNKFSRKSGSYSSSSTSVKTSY

B1: Y022054 (antibody, V domains shown)
VH: EVQLLESGGGLVQPGGSLRLSCAASGFTFSSYAISWVRQAPGKGLEWVSAISGSGGSTYYAESVKGRFTISRDNSKNTLYLQMNSLRAEDTAVYYCARGYAEFGVWGQGTLVTVSS
VL: DIQMTQSPSSLSASVGDRVTITCRASQSISSYLNWYQQKPGKAPKLLIYAASSLQSGVPSRFSGSGSGTDFTLTISSLQPEDFATYYCQQTWGGPQTFGQGTKVEIKR
With B1 as the binder, how does the “fold higher affinity compared to Y022063 and Y021171” value [1] read?
Its value is 10 fold.

What about the Kd [2] of the same binder?
The Kd was 2.5 nM.

And the koff [2]?
Its koff is 0.00029 s⁻¹.

And the kon [2]?
Its kon is 120000 M⁻¹ s⁻¹.

What about the “% Max Inhibition AP, IP-One” value [3] of the same binder?
Its value is 17%.

Does B1 bind [4]?
Result: no binding
